For the assay, the target named is human serum albumin (HSA) (human) (UniProt P02768). Put plainly: HSA-coupled agarose beads, washed with PBS, fluorescence plate reader (ex 480 nm, em 510 nm).
Chain of UniProt P02768 (P02768 25-609 limits assumed): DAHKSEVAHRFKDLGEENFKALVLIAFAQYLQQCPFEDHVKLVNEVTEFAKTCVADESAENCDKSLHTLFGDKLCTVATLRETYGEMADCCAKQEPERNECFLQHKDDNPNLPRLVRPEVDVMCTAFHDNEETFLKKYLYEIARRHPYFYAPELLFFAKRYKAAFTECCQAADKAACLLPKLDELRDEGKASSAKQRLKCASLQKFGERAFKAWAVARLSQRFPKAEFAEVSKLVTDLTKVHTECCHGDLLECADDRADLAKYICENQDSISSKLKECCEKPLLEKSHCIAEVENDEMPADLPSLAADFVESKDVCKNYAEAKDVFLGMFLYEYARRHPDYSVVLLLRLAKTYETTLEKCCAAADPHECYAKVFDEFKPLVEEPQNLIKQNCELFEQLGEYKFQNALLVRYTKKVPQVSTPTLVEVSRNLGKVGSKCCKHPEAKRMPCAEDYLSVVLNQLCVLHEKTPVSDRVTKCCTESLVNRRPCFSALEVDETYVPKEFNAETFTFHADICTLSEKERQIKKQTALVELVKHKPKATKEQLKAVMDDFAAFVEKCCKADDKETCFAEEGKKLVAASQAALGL

Take “palmitic acid-conjugated superfolder green fluorescent protein (sfGFP-Pal)”: the fold fluorescence of HSA-coupled beads against those with sfGFP-WT was 20 fold.

Source of the values: patent publication US20150297680A1.
